Reference: patent US20260285931 (published 2026)

T1: CD127-Fc (IL-7Ralpha Fc) (human, UniProt P16871)
T1 chain: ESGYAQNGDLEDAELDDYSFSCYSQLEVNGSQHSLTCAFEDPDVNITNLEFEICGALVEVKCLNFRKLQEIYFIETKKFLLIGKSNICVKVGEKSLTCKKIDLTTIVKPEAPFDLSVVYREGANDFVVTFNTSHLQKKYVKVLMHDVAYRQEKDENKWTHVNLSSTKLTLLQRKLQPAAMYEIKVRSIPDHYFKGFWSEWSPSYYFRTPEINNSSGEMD

B1: IL-7_s13a (designed binder)
chain: KKLNDLCFLKRLLQEIKTCWNKICSKADDKETCKQYESVLMVSIDQLLDSMKEIGSNCLNNEFNFFKRHICDANKECMFLFRAARKLRQFLKMQSTGDFDLHLLKVSEGTTILLQSTGCS
B2: IL-7_s4a (designed binder)
chain: KKLNDLCFLKRLLQEIKTCWNKRYKAAFTECSQAADKAACLLPKLDELKQYESVLMVSIDQLLDSMKEIGSNCLNNEFNFFKRHICDANKECMFLFRAARKLRQFLKMQSTGDFDLHLLKVSEGTTILLQSTGCS
B3: IL-7_s10 (designed binder)
chain: KKLNDLCFLKRLLQEIKTCWNKYTKKVPQVSTPTLVQYESVLMVSIDQLLDSMKEIGSNCLNNEFNFFKRHICDANKECMFLFRAARKLRQFLKMQSTGDFDLHLLKVSEGTTILLQSTGCS
B4: IL-7 wt-degly (protein)
chain: DCDIEGKDGKQYESVLMVSIDQLLDSMKEIGSNCLNNEFNFFKRHICDANKEGMFLFRAARKLRQFLKMQSTGDFDLHLLKVSEGTTILLQCTGQVKGRKPAALGEAQPTKSLEEQKSLKEQKKLNDLCFLKRLLQEIKTCWNKILMGTKEH
B5: IL-7_s9 (designed binder)
chain: KKLNDLCFLKRLLQEIKTCWNKICSAAADPHECYKQYESVLMVSIDQLLDSMKEIGSNCLNNEFNFFKRHICDANKECMFLFRAARKLRQFLKMQSTGDFDLHLLKVSEGTTILLQSTGCS
B6: IL-7_s11 (designed binder)
chain: KKLNDLCFLKRLLQEIKTCWNKKVGSKCSKHPEAKRMPCAEDYLKQYESVLMVSIDQLLDSMKEIGSNCLNNEFNFFKRHICDANKECMFLFRAARKLRQFLKMQSTGDFDLHLLKVSEGTTILLQSTGCS
B7: IL-7_s12 (designed binder)
chain: KKLNDLCFLKRLLQEIKTCWNKLHEKTPVSDRVTKQYESVLMVSIDQLLDSMKEIGSNCLNNEFNFFKRHICDANKECMFLFRAARKLRQFLKMQSTGDFDLHLLKVSEGTTILLQSTGCS
B8: IL-7_s6 (designed binder)
chain: KKLNDLCFLKRLLQEIKTCWNKILSQRFPKAEFAEVKQYESVLMVSIDQLLDSMKEIGSNCLNNEFNFFKRHICDANKECMFLFRAARKLRQFLKMQSTGDFDLHLLKVSEGTTILLQSTGCS
B9: IL-7_s1 (designed binder)
chain: KKLNDLCFLKRLLQEIKTCWNKIFAQYLQQSPFEDHKQYESVLMVSIDQLLDSMKEIGSNCLNNEFNFFKRHICDANKECMFLFRAARKLRQFLKMQSTGDFDLHLLKVSEGTTILLQSTGCS
B10: IL-7_s2 (designed binder)
chain: KKLNDLCFLKRLLQEIKTCWNKICSAKQEPERNECFKQYESVLMVSIDQLLDSMKEIGSNCLNNEFNFFKRHICDANKECMFLFRAARKLRQFLKMQSTGDFDLHLLKVSEGTTILLQSTGCS
B11: IL-7_s13 (designed binder)
chain: KKLNDLCFLKRLLQEIKTCWNKILVEKCSKADDKETCFAEDGKQYESVLMVSIDQLLDSMKEIGSNCLNNEFNFFKRHICDANKECMFLFRAARKLRQFLKMQSTGDFDLHLLKVSEGTTILLQSTGCS
B12: IL-7_s4 (designed binder)
chain: KKLNDLCFLKRLLQEIKTCWNKIAFTECSQAADKAACLLPKLDEYESVLMVSIDQLLDSMKEIGSNCLNNEFNFFKRHICDANKECMFLFRAARKLRQFLKMQSTGDFDLHLLKVSEGTTILLQSTGCS
B13: IL-7_s8 (designed binder)
chain: KKLNDLCFLKRLLQEIKTCWNKECSEKPLLEKSHCIKQYESVLMVSIDQLLDSMKEIGSNCLNNEFNFFKRHICDANKECMFLFRAARKLRQFLKMQSTGDFDLHLLKVSEGTTILLQSTGCS
B14: IL-7_s10a (designed binder)
chain: KKLNDLCFLKRLLQEIKTCWNKYTKKVPQVSTPTLKQYESVLMVSIDQLLDSMKEIGSNCLNNEFNFFKRHICDANKECMFLFRAARKLRQFLKMQSTGDFDLHLLKVSEGTTILLQSTGCS
B15: IL-7_s5 (designed binder)
chain: KKLNDLCFLKRLLQEIKTCWNKILQKFGERAAKQYESVLMVSIDQLLDSMKEIGSNCLNNEFNFFKRHICDANKECMFLFRAARKLRQFLKMQSTGDFDLHLLKVSEGTTILLQSTGCS
B16: IL-7_s7 (designed binder)
chain: KKLNDLCFLKRLLQEIKTCWNKIVHTECSHGDLLECADDRKQYESVLMVSIDQLLDSMKEIGSNCLNNEFNFFKRHICDANKECMFLFRAARKLRQFLKMQSTGDFDLHLLKVSEGTTILLQSTGCS

Molecular target: T1, CD127-Fc (IL-7Ralpha Fc)
Assay: BLI

In order of falling Kd:
1. B4  64.7 nM
2. B16  56.7 nM
3. B5  49.3 nM
4. B6  39.3 nM
5. B3  35.3 nM
6. B14  34.6 nM
7. B12  33.6 nM
8. B13  33.4 nM
9. B11  31.9 nM
10. B7  25.9 nM
11. B8  17.1 nM
12. B2  14.5 nM
13. B10  10.6 nM
14. B15  7.57 nM
15. B1  3.6 nM
16. B9  1.89 nM
